From publication PMC3919625 (Cell reports, 2013)

B1: 2G12 IgG monomer (antibody, V domains shown)
VH: EVQLVESGGGLVKAGGSLILSCGVSNFRISAHTMNWVRRVPGGGLEWVASISTSSTYRDYADAVKGRFTVSRDDLEDFVYLQMHKMRVEDTAIYYCARKGSDRLSDNDPFDAWGPGTVVTVSP
VL: VVMTQSPSTLSASVGDTITITCRASQSIETWLAWYQQKPGKAPKLLIYKASTLKTGVPSRFSGSGSGTEFTLTISGLQFDDFATYHCQHYAGYSATFGQGTRVEIK
B2: 2G12 IgG dimer (antibody, V domains shown)
VH: B1 VH
VL: B1 VL

Biological target: gp120 from HIV-1 strain SF162 (clade B) (HIV-1 group M subtype B, isolate SF162, UniProt P19550, strain)
Assay: SPR

Binder	binding result
B1	binds
B2	binds
